In patent US20260097122A1 (AUTOLUS, published 2026):

Target: T1, recombinant soluble CD22 ectodomain (human, UniProt P20273 20-687)
T1 construct: extracellular domain; Staining reagent used to detect the 9A8 CAR on T cells; also called soluble recombinant CD22 ectodomain
T1 sequence (looked up): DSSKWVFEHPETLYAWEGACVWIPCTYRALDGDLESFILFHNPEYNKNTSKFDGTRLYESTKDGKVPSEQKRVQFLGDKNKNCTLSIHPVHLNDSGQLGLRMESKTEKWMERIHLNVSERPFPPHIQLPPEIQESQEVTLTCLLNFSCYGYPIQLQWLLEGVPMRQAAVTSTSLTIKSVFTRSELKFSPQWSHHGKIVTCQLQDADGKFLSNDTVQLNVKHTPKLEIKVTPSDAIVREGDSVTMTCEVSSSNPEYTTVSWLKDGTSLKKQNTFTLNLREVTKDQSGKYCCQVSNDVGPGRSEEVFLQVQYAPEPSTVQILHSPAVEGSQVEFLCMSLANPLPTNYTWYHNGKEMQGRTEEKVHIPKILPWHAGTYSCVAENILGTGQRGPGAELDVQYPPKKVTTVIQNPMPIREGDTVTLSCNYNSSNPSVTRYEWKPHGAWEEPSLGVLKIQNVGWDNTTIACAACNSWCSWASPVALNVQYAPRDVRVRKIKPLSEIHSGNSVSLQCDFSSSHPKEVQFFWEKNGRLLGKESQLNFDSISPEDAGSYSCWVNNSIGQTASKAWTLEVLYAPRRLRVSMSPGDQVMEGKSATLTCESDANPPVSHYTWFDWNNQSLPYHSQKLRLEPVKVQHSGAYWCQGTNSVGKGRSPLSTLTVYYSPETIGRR
Assay: flow cytometry of CD19 CATCAR T cells stained with anti-idiotype and soluble recombinant CD22 ectodomain [cont.) F]
Source text: FIG. 4. AUTO1/22 CAR T cells enhanced activity in vivo. A) Schedule of the in vivo model. B) and C) NSG mice were intravenously injected with 1×10⁶ Nalm-6 WT (B) or Nalm-6 CD19KO (neg) cells (C), and treated with non-transduced (NT), AUTO1 or AUTO1/22 normal donor T cells. Serial bioluminescence imaging was taken. All cells expressed HA-tagged firefly Luciferase. D) and E) Spider plot showing bioluminescence flux for each mouse over time; Nalm-6 WT (D) or Nalm-6 CD19KO (neg) cells (E). F) In vivo expansion of the different CAR T cell populations. Differential engraftment of different CAR T cell populations. The proportion of the different subpopulation of CAR T cells was determined by staining for AUTO1 with anti-idiotype and 9A8CAR with soluble recombinant CD22 ectodomain. […]
Next, the function of CD19 CAR T cells (AUTO1) and CD19/22 co-transduced CAR T cells (AUTO1/22) in vivo was determined. […] NALM6 cells were first engrafted in NSG mice by tail-vein injection, and their engraftment determined by bioluminescence imaging (BLI). […] NALM6 burden was measured sequentially using BLI. […] NALM6 burden and CAR T-cell engraftment was determined by flow cytometry.
Finally, the proportion of AUTO1, CD22CAR and AUTO1/22 CAR T cells engrafted in mice at sacrifice was determined by flow-cytometry of marrow aspirate.

B1: CD19 CATCAR (second-generation CD19 CAR, aCD19cat-CD8STK-41BBZ) (other)
chain: QVQLQQSGPELVKPGASVKISCKASGYAFSSSWMNWVKQRPGKGLEWIGRIYPGDEDTNYSGKFKDKATLTADKSSTTAYMQLSSLTSEDSAVYFCARSLLYGDYLDYWGQGTTLTVSSGGGGSGGGGSGGGGSQIVLTQSPAIMSASPGEKVTMTCSASSSVSYMHWYQQKSGTSPKRWIYDTSKLASGVPDRFSGSGSGTSYFLTINNMEAEDAATYYCQQWNINPLTFGAGTKLELKRSDPTTTPAPRPPTPAPTIASQPLSLRPEACRPAAGGAVHTRGLDFACDIYIWAPLAGTCGVLLLSLVITLYCKRGRKKLLYIFKQPFMRPVQTTQEEDGCSCRFPEEEEGGCELRVKFSRSADAPAYQQGQNQLYNELNLGRREEYDVLDKRRGRDPEMGGKPRRKNPQEGLYNELQKDKMAEAYSEIGMKGERRRGKGHDGLYQGLSTATKDTYDALHMQALPPR
notes: Chimeric antigen receptor expressed on the surface of transduced T cells: CAT19 scFv, CD8 stalk spacer and transmembrane domain, 4-1BB-CD3 zeta endodomain; also called CAT19CAR; CATi9CAR
B1: no binding.
